Consider 21 sequences from the DeepSol protein solubility set.

The data set in a line: soluble on expression in E. coli; label from the status in PepcDB or PDB records.
Turning to “MGSDKIHHHHHHMSSTKIIATFNQSGGAAKTTITHNLGYHLAKKHRVLLVDMDPQASLTAFMGLGEVKLQTEQTIYGAIAEETPLYIWEKPIHGMHLVPTNIQLAGTEQKIFHDLTIDNRQRLKFVLSNVLDQYDYILIDCPPSLGILSIMSLVAASHVIIPVETQYKCYLGTNQLLETIARLKKGGHQKLQIACIIPTKYDNRNLQDTGILEEIKQQVEGRIHVTAPIPKSTAFPDATQAHLPLALHKKNHPAVSILEEITKYITQLSVTQGQSH”, the “soluble on expression in E. coli” value is reported as “not soluble”.

Turning to “MGSDKIHHHHHHVDQVNAYRNSAHLYDLDQRELVTADIPFYLEYAGSFGGGILELGCGTGRIAIPLAEAGHDITALDLSENMLAAFSAKLTNVAAGTKKKLALVQGNMADFSLRKTFDMIIAPFRAFQALTRAEDINGCLACMREHLNDGGIVIINVFRPFGTLDESWCYPETVQWERWDDATGSKVVKKHWGQRIDVENQIIYPGFAYEVMASNGVVERFADNLALKYYYYEQLTTLLQDAGFRIKEEYGWYDKSPIENGRELIFVCTR”, the “soluble on expression in E. coli” value is reported as “not soluble”.

With “MFALVLAAGRSRRFDGDKRKALLPCGRTLLTACLETAGKVFTETGVVLREDDEVQTLGIPSKVTIIRCKHADLGMGHSLAAGIAAALNSSADAVAILLADMPWIEPQTLRDLARLADPQRIALPMHEGQRGHPVIIGRRFWPRLLALEGDQGAKALITNNPAFCDVMNCDDPGVLRDADTRSALAIACRQHLTAGRDLEHHHHHH”, the “soluble on expression in E. coli” value was “not soluble”.

Take “MTENNRLSVKLPGLDLKNPIIPASGCFGFGEEYAKYYDLNKLGSIMVKATTLHPRFGNPTPRVAETASGMLNAIGLQNPGLEVIMTEKLPWLNENFPELPIIANVAGSEEADYVAVCAKIGDAANVKAIELNISCPNVKHGGQAFGTDPEVAAALVKACKAVSKVPLYVKLSPNVTDIVPIAKAVEAAGADGLTMINTLMGVRFDLKTRQPILANITGGLSGPAIKPVALKLIHQVAQDVDIPIIGMGGVANAQDVLEMYMAGASAVAVGTANFADPFVCPKIIDKLPELMDQYRIESLESLIQEVKEGKK”: the “soluble on expression in E. coli” value was “soluble”.

For the sequence “SADSKEGVLPLTAASTAPISFGFTRTSARRRLADSGDGAGPSPEEKDFLKTVEGRELQSVKPQEAPKELVIPLIQNGHRRQPPARPPGPSTDTGALADGVVSQAVKELIAESKKSLEERENAGVDPTLAIPMIQKGCTPSGEGADSEPRAETVPEEANYEAVPVEAYGLAMLRGMGWKPGEGIGRTFNQVVKPRVNSLRPKGLGLGANLTEAQALTPTGPSRMPRPDEEQEKDKEDQPQGLVPGGAVVVLSGPHRGLYGKVEGLDPDNVRAMVRLAVGSRVVTVSEYYLRPVSQQEFDKNTLDLRQQNGTASSRKTLWNQELYIQQDNSERKRKHLPDRQDGPAAKSEKAAPRSQHWLHRDLRVRFVDNMYKGGQYYNTKMIIEDVLSPDTCVCRTDEGRVLEGLREDMLETLVPKAEGDRVMVVLGPQTGRVGHLLSRDRARSRALVQLPRENQVVELHYDAICQYMGPSDTDDD”, the “soluble on expression in E. coli” value is given as “soluble”.

Consider “AQPGAEVLAIDGITVKDTRGIETVRDLSLSVKAGEIVGIAGVDGNGQSELIEAVTGLRKTDSGTITLNGKQIQNLTPRKITESGIGHIPQDRHKHGLVLDFPIGENILLQSYYKKPYSALGVLHKGEMYKKARSLITEYDVRTPDEYTHARALSGGNQQKAIIGREIDRNPDLLIAAQPTRGLDVGAIEFVHKKLIEQRDAGKAVLLLSFELEEIMNLSDRIAVIFEGRIIASVNPQETTEQELGLLMAGSTQKEAGKANG”, for which the “soluble on expression in E. coli” value was “not soluble”.

Regarding “MAAASVKGFFQRTGISIKEYFKRMGNDYATVARETVQGCKDRPVKAGVVFSGLGFLTYAYQTNPTELEMYDYLCERRQKLVLVPNSEHNPATTKELTARDFLISQNRLHYYNLWFFSLLVASDYNDKLRIYSSQDSNLKDWPWTELWRNIVDIGALGRWHRMETAFVDYDVNTDEIDLLPDGDKN”, the “soluble on expression in E. coli” value is listed as “not soluble”.

Turning to “APNVDLHCHSTVSDGSMPPAAVARRAHANGVDVWALTDHDEIGGVAEAAQAAAALGMRFVAGVEISVTWAGLTVHIVGLRVDPANEALVQGLRDTRAGRAARAVQIGERLAGLGMPGAYEGALPFAGNPELISRTHFARFLVEAGYCPDVQTVFNKYLGDDCPGHVPMQWASLAEAVGWIRGAGGCAVIAHPGRYKYSPMQFDALYDEFLQLGGTGIEVVTGSHTSEEARRYAEVARRHGFLASRGSDFHSPTESRVDLGRLPPLPPDLKPVWHDW”, the “soluble on expression in E. coli” value is “not soluble”.

On to “MEMNVAAPAAAVAGAAAPQPGQNQTGSSYTMASLYVGDLHPDVNESILFEKFSAAGPVLSIRVCRDNATRLSLGYAYVNFQQPADAERAMDTMNFEALHGKPMRIMWSQRDPAMRRSGAGNIFIKNLDKVIDNKSIYDTFSLFGNILSCKVAIDEDGFSKGYGFVHFETEEAAQNAIQKVNGMLLAGKKVFVGKFQPRAQRNRELGETAKQFTNVYVKNFGDHYNKETLEKLFAKFGNITSCEVMTVEGKSKGFGFVAFANPEEAETAVQALHDSTIEGTDLKLHVCRAQKKSERHAELKKKHEQHKAERMQKYQGVNLYVKNLDETVDDDGLKKQFESYGNITSAKVMTDENGRSKGFGFVCFEKPEEATSAVTEMNSKMVCSKPLYVAIAQRKEDRRAQLASQYMQRLASMRMHGNVPGAAMYNPTQPGPGYYVANPMQQQRNFAGGQQMVRPGGRWGMQNQYPVQNQYMMAQGPGVYQNRMGRPQNQQGGPRGPPQQYNQVAQGGVRMQGPPRTQNPGVQQQNVPRPPQQQQQQRPAPTGPKAPPQPYQAYQQRPQGIVIGGQEPLTSAMLAAAAPQEQKQLLGERIYALIEKLYPGHKDAGKITGMMLEIDNSELIMMLQDSELFRSKVDEAASVLVSAQKQ”, for which the “soluble on expression in E. coli” value was “not soluble”.

For “SESKKRELFSQIKDLKGTSGNVALLELGCGTGANFQFYPQGCKVTCVDPNPNFEKFLTKSMAENRHLQYERFIVAYGENMKQLADSSMDVVVCTLVLCSVQSPRKVLQEVQRVLRPGGLLFFWEHVAEPQGSRAFLWQRVLEPTWKHIGDGCHLTRETWKDIERAQFSEVQLEWQPPPFRWLPVGPHIMGKAVK”, the “soluble on expression in E. coli” value is listed as “soluble”.

For “MRPMTHVPVLYQEALDLLAVRPGGVYVDATLGGAGHARGILERGGRVIGLDQDPEAVARAKGLHLPGLTVVQGNFRHLKRHLAALGVERVDGILADLGVSSFHLDDPSRGFSYQKEGPLDMRMGLEGPTAKEVVNRLPLEALARLLRELGEEPQAYRIARAIVAAREKAPIETTTQLAEIVRKAVGFRRAGHPARKTFQALRIYVNDELNALKEFLEQAAEVLAPGGRLVVIAFHSLEDRVVKRFLRESGLKVLTKKPLVPSEKEAAQNPRARSAKLRAAEKEAP”, the “soluble on expression in E. coli” value is given as “soluble”.

As for “MAICESGALPSHVGALSYSGGAASSFFGRRNADGLNDKWLALRDAFRAAGGDLLAIEDARSAALDFVIHVNAHRLRHDVPAFVILAESEFIHPPNVDWRMLQQYKGIFTWMPDLVRRGIGTEICLAHPLGAGVVDGYQERPQLLVMIASNKALPVWRPAVDLYRERVRAIRWFEKHAPQAFALYGHDWDKSPRLPTPLGGIVHGVEFVLPWRLQWFPSWKGVIPSKREVLRHARFSLCYENVRGLRGYITEKIFDAFCAGNVPVYWGAEDITDYIPADCFIDRRAFGDYADLYRYLTSMPETRYIQYQQAICDFLVSPAAKRFSSEIFATTIVGKVLDTLGRRDE”, the “soluble on expression in E. coli” value is given as “not soluble”.

As for “MGHHHHHHSHMTLKSSGRISDVFLCRHEKIFHPNKGYIYVVKVMRENTHEATYIQRTFEEFQELHNKLRLLFPSSHLPSFPSRFVIGRSRGEAVAERRREELNGYIWHLIHAPPEVAECDLVYTFFHPLPRDEKAMGTSPAPKSSDGTWARPVGKVGGEVKLSISYKNNKLFIMVMHIRGLQLLQDGNDPDPYVKIYLLPDPQKTTKRKTKVARKTCNPTYNEMLVYDGIPKGDLQQRELQLSVLSEQGFWENVLLGEVNIRLRELDLAQEKTGWFALGSRSHGTL”, the “soluble on expression in E. coli” value is given as “not soluble”.

Regarding “MGSDKIHHHHHHMRVEEAKYLAKKIMMAGEIPLLVGHFGVGKTDIARDIARETERKLIILVLSQMEPGDLIGLPARTEEKTVFLKPDWWPESGDTILFLDEINRAHRSVRNAIMQLLVDRRIHNHILPEGTWIMAAMNPPEEEYDQADLITDPAFISRFFILEVNPDVSEWLEWAEKNNVSKEVRDFIRDYPEFLFSERSLSLRTSLKPSPRSWYKLSNVLKTLTDDEKEKYGYVIAAGIVGPEAAKAFYDSFFQRVKIPSVESVLFDGKIENLEDIHAANTLVLRIVDFLSKVDVRTLERHLDDVSKNLVRLSEIMPKESFYGVLRFLVDEAQKEGEKSWIFDKILEKMLEREDMRKMVNEL”, the “soluble on expression in E. coli” value is “not soluble”.

As for “MRILAIGDIIGRPGRKALRELLPQLKEEVAYDVVIANVENSAGGFGITKKVYEELLEIGIDVMTSGNHIWDKKEVYNFIGEAYNLLRPANYPEGVPGRGYGIFKKNGVEFAVINLMGKVFMDCNLENPFKTFDRIYDELKDKVKIIVVDFHAEATSEKWAFGIYVDGRASFVYGTHTHVPTADEFILKKGTGYVSDIGMTGVWYSAIGMKPKEAIERFLLSLPRRFEVEDKGEIMFNAVLVDIDEETGKTKSIERIKRFL”, the “soluble on expression in E. coli” value is reported as “soluble”.

Consider “MTHFKGGTMSQFEKYHPILTPHYTFDWLTKVRVIDVFNLYQTSNATATMETTAAQINHTMREIFHDHQLVWGVTARDTNAFVGQVGFAPIDTAKHEATLSVDLTATYQQVTTLREILERLVAFGTVELKLNRLTLILPKHDDLMAQILAGLNFSTTDHLTFNYHQ”, for which the “soluble on expression in E. coli” value is recorded as “not soluble”.

Take “MNSPLAPVGVFDSGVGGLTVARAIIDQLPDEDIVYVGDTGNGPYGPLTIPEIRAHALAIGDDLVGRGVKALVIACNSASSACLRDARERYQVPVVEVILPAVRRAVAATRNGRIGVIGTRATITSHAYQDAFAAARDTEITAVACPRFVDFVERGVTSGRQVLGLAQGYLEPLQRAEVDTLVLGCTHYPLLSGLIQLAMGENVTLVSSAEETAKEVVRVLTEIDLLRPHDAPPATRIFEATGDPEAFTKLAARFLGPVLGGVQPVHPSRIH”: the “soluble on expression in E. coli” value is given as “not soluble”.

For the sequence “MQPSIAPSTPIPRQETVELVYRIFGDVLVPLEQVRERWFRNLNKENFSKALACGRIALPVTTLDDSHKAMQFVALDHLAAYVDQRANQAGSARRAQPGADSIAS”, the “soluble on expression in E. coli” value was “not soluble”.

With “MPNKNTQEYWEERGRKAIENELKRDKTKAEEIERILNMMIKRIEKEINAFIVKYGDFAGVTLQEAQKIIDEFDVKAFQEEAKRLVENKDFSDRANEELKKYNTKMYVSREQMLKIQIEFLIAYATAQTELSMREYFESTAYRVFSDQAGILGEGVQVAKEVIDTIVDTQFHGVVWSERLWTNTEAMKQEVEEIIANVVIRGRHPNEYVKDMRKHLNKFEGTARQKTAAIKSLLYTESARVHAQSSIDSMKEISPEGYYMYIAKIDNRTTKVCKGLNGEIFKVKDAKIGVNFYPMHINCRSDCALLPKSMWPKKPSKKRKTKYFGGKVKSGD”, the “soluble on expression in E. coli” value is reported as “not soluble”.

“MFQTFEGDLKWHHHNITYWIQNYSEDLPRAVIDDAFARAFALWSAVTPLTFTRVYSRDADIVIQFGVAEHGDGYPFDGKDGLLAHAFPPGPGIQGDAHFDDDELWSLGKGQGYSLFLVAAHEFGHALGLDHSSVPEALMYPMYRFTEGPPLHKDDVNGIRHLY”: the “soluble on expression in E. coli” value is on record as “soluble”.

As to “MGSSHHHHHHMRVDGREKTELRHIHIHTNYLKHPEGSVLIEVGDTKVICSATIEERVPPFMRGEGKGWVTAEYAMIPRATEQRTIRESSKGKVTGRTMEIQRLIGRALRAVVDLEALGERTVWIDCDVIQADGGTRTASITGAYVAMVLAFEKLLQAEKVSKIPVKDYLAATSVGIVEEQGVVLDLNYAEDSKADVDMNVIMTGKGQFVEVQGTGEEATFSRAQLNELLDAAEQGIFQLIDIQKEALGDIVSHIE”, the “soluble on expression in E. coli” value was “soluble”.
